# Data reported in patent US12077763B2, “RNA-based control of powdery mildew” (Greenlight Biosciences, Inc., priority 2021, dated 2024).
# B1: GS1830: dsRNA trigger SEQ ID NO 178; gene target Regulator of nonsense transcripts 1 homolog (nucleic acid)
# DNA: CCGAGTTAAAGCTACATTTAAACGTCTTGGGTCACTTAAGAACCCAATTCCTTGATGGTCATTTGATCGAACACATGATAAAACAATGAAGTCTTTTTCACGCCCTTGAAAAGCATCGACTGAAGCAACTTCAATTTCCCTGTAGTTTTCTTTTTTAAAAGTACCAGTGTTTTGCATAGAGCTTACAACGTAACTTCGCTGACCTTCGTAAGGTGTAATAACTCCAATATCGGCAGGCTGAACACCTGCTTTGAAAAATCGGGTTACTATTTTTTCAACATTAGAAGCCTCTGTGCGATTAAGATATGATGTTCCTGAAGCAGAAATCTCTTCATTTCCGAGATTAGACCAAAACATCATCGGTGTATCTCCAACTGGCCAAGGAAAGTCAACTTCATCTCTAAGCCGCTCTTGCATCGTCACACCATTCTGGAGAGTTCCTTCATAGAACATATTTGACGGAAACTCTGATAGGCATGGATGCATACGATACTGGATATTGAGTCGAATAGGGTGCATTTCCAACATGACTAGACGTTCAAAAAGTGACTGATTTAAACCTGCTTTGGCAGCTTTTTTATTCATAATAAC
# B2: GS1825: dsRNA trigger SEQ ID NO 141; gene target Serine/threonine-protein kinase cek1 (nucleic acid)
# DNA: CGACCGATTAATCCCATTCTAGACAAGCCAAAATCTGTCAATTTAAGATGGCCTTTCTGATCAATTAAGAGATTGTCAGGTTTAAGATCTCGATGAACTATCCCTCGACTATGAAGATGTTTGACCCCTAGGATAACCTCACCTAAGTATTTTCTTGCCCAATCCTCTTGAAGACCGCCTAAAGCCTTTATAAGTGACGCACAGTCGCCTCCATTCAAATATTCCATAACCAAGTAGAGATAGTCTTTACTTGAGAATGTCCAGTATAATTTAGCTACAAAGTCACTCTCACCTTGCCACATCATGATTGCACGTTCAGCTTTAACGTTAGTTACCTGATTTTTGGCTACCATATCGGCTTTTTTAAGTACTTTGATTGCATAGTAGTCACCTGTAGATTTTTTCTTGGCAAGATAAACACTTCCGAATGCACCTTTACTGATAGGTTTTATTATTTCAAAGTCTTTTATGGAGGGTGGAACAATACGGGCTTGGGGAACACCGACAGTTGATAAACGAGGTGATGGAGGTAGTCGAGATGGGTCAGAGCCTGCAGCAGAAGATTGACGTCTATGGTGATGAGGTAGAAGAGCA
# B3: GS1826: dsRNA trigger SEQ ID NO 180; gene target Adenosylhomocysteinase (nucleic acid)
# DNA: CGCGAGTAAGATTATATGACGACCATTCTTCATTAGAAAACGATCGACTTGGGGCTTAATATTTTGAACGCTTTGTGCATTAGCTTTAAGCCATGCGACATCTATTTCAATGTCAAAGTGTCCAATATTGCAAACAATAGCATCGTTAGGCATAACTTCAAAATGTTTTCCTACTAAAATGTCACGGCATCCTGTAGTAGTTACGAAGATCTGAGCTTGACTTGCGGCCTTTTCCATTGTGGTGACTTGGAAGCCAGAAACTGCAGCTTGTAAAGCATTTATAGGGTCAACCTCAGTAATTAGTACACGTGCACCCATACCCTGAAGAGCTAATGCACACCCTTTTCCAACATCACCAAAACCAGCAACAACGGCAATTTTTCCAGCAATCATAACATCGGTGGCTCGTTTAATACCATCGATCAAAGACTCGCGGCAGCCATAGAGATTGTCAAACTTAGACTTTGTGACAGAATCATTGACGTTAACCGCAGGCACGAGCAAAGTATTGTTTTTTAACATTTTATATAAATGGTGAACTCCAGTAGTGGTTTCCTCAGATACACCAAAGCAACCTTTTAACATTTCTGGATA
# B4: GS1831: dsRNA trigger SEQ ID NO 115; gene target glycosyl_partial (nucleic acid)
# DNA: CTGAATTGTTTTGAGACTGTTTATTACGAAACCCATTACTTTTGTCTTTGATATGGAATCTCCGATTGACAAACAATGTTTCGTCAGGTTTTGGTTCATAGCTAGTGGTCATTCCAATGGCACCTCTAATGTTATTAATAACAGTATTGAGTGATTGCTCAGGCATTAAACAAGCTGGGCGACATTCGGGTATATTTGAAACAGATTGTAAAATTTTGTCACGAAGGGTTGTTTCGTCTTGAAAATTTGGTCGCAAGCATAACTGGAGATTACGAAGTTGTTTTACTAATATTTCAAATACATCAAGCAATGGCTTTTCAGAATGTTGACTAGAAAGAAGTTGCAAGGTAATTTTGTTCCATTCATTCTGTGCATTTCTCTGTTTTTGTGGTCCTTCAAATTGGCCAAGCATTAATTGAGAGATTTCATCGATCTGTATTGCATTGCTACAGCGATGATGGTAGAAGTCTAATGCTTCTTTGTTAAACATTAAGAACATAGAAGACAGGATGTCTTTTTCATTTTCGATGCTCGCTAATTCGCATTTTTTCAAAAAGATGTTTAACTTGAAGTTATAGCTATCATCTTTT
# B5: GS1827: dsRNA trigger SEQ ID NO 195; gene target Ubiquitin-like modifier-activating enzyme 1 (nucleic acid)
# DNA: AAAGTTATCGCCGAAGTCGCAGAATATATATCCAAATAATCCAAAGGTTTCAGTTATTACTACATATATTCCCTTCTCATGTAGATACTGGGAGATTATGAGCTGGTCTTTCAGTGGAATATCTGTCAATATTACAGCTTGATATGAATCAAACTGGGAGAGATCAGAAACTAAGCTTGTGGAGCTGTGAATCTTAACAGGGGTGTAAGCATTTAGTTCCGAAACTCGTTGAGCTGAGACAATATCTCTAGGTTTTCCTATATCTTCTGGGTTAAGAAAGAATTGAGATGATAGGTCAGCGATAGTTGCGGGAGCGGGATCGTATAATGTTAGACTTTTAACTCCAGCCAGAGCTATATTCTTAGCTATTTCGATACCAAGACCTTTCAAGCCAATAATAAGAATATTCGATGCACTCATTCGTTTCATAGCCTCGTGTCCAAGAACGTAGAGTTGCCTACTGTATAAAGACTCATCGATAACATTATTATTTTCTTGTGACTCATCAACTTCCATCTTCATCTTGTCTTCAATTTTACTGACTTCACTCATCTTGAATACTTCCTGTAAATCCAATTTACATCAACTGAATTA
# B6: GS1833: dsRNA trigger SEQ ID NO 151; gene target Eukaryotic translation Initiation factor 3 subunit G (nucleic acid)
# DNA: ACCTCACTAGGGCCTTCAGTAGTTTCATTAATACTAGTTAAAGCATCTCCGCTGTTTTCTTCACCAATTGGAGCCATTGTATCTTTAAAGGGACATCGGGCTGTAAAATGCTCTCCATTACATATACGACATTTAACTTTCTTATCTTTTAATTTGTCTTTCATTATTCCTGCCTCTGTTTTTTCATCTTTGGCATCTTTTTTCCAGTTGGCACTCGGTCTGAAAGTTATATTTTCACCAATAGATGTGGTTGAGCTATCTGGTCCGGGTTGATCTTTAGCAGAGAGTCCAAATTTACTCCACTGCTTTCTCTCGGCAACTCTAGGATTTACAATTTCTTTGTGTGTAGTGAAACGAATTCGTCTGGTATATTTGATCTTTTTTCCATCTTCATCGATTCGATAACTTACGATAGTTTGAGAGCCATCTTTATTAGTTGTTGTAGTTGTAGGAGGAAGTTGTTCTTCAATCCGGTCAACGGAAAGATCTTCATCGTCGGCCCAGTCAGCGCGAACAGATTGTTTAGACATTTTTCAAAATATTTTAATTAAATACTTGCAAATGGAAAGCTTGTAAATTCAAGCAAGTAT
# Test system: E. necator
# Assay: Leaf disc assay, dry inoculum (settling tower), decrease in disease severity / hyphal growth (Example 2)
# Conditions: decrease in disease severity (hyphal growth) relative to untreated control; time point 1 (untreated control hyphal growth ≥50%); value ± SE
row,Molecule,% decrease =/− SE TP1 [%]
1,B1,36 ± 4
2,B2,28 ± 5
3,B3,19 ± 6
4,B4,34 ± 6
5,B5,45 ± 2
6,B6,12 ± 5

# Same assay, conditions: decrease in disease severity (hyphal growth) relative to untreated control; time point 2; value ± SE
row,Molecule,% decrease =/− SE TP2 [%]
1,B1,24 ± 5
2,B2,18 ± 6
3,B3,6 ± 5
4,B4,19 ± 6
5,B5,40 ± 4
6,B6,7 ± 5
